According to the supplement of paper PMC10724198:
± gives the standard deviation of the averaged measurements.

What follows are sequences tested on Saccharomyces cerevisiae (assay: protein stability index of tFT-peptide fusion (C-terminal peptide) (PSI (0-1 scale)); higher = more stable (slower turnover)). Details: genetic background: wild type; temperature: 30 C.
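Note: PSI is a weighted mean of sequencing reads over stability bins, variants kept only with over 10 reads, mCherry proximal and sfGFP distal, peptide attached via GGGS linker.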

Sequence | protein stability index
VLSDFSFPFFVL | 0.669 ± 0.017
VLSVLGLGFWGG | 0.8042 ± 0.0076
VLTGQQSVFGAK | 0.752 ± 0.096
VLVSGRCCRCGF | 0.701 ± 0.048
VMLGGWRVPGER | 0.7754 ± 0.0033
VMNGGCFGWAVG | 0.628 ± 0.058
VMPSICTKYGVN | 0.717 ± 0.13
VMVNTAWERRKR | 0.673 ± 0.065
VMYLSGCFHSQI | 0.659 ± 0.059
VNILKRQKRARG | 0.72 ± 0.052
VNQSCPRPTPFV | 0.67 ± 0.051
VNTPGVDSDPVA | 0.661 ± 0.11
VPACFSYFLASC | 0.68 ± 0.04
VPCILLFSHFKH | 0.619 ± 0.042
VPCPPRRLAPRG | 0.582 ± 0.015
VPDGPAHIPLPL | 0.683 ± 0.065
VPDGVAGRRPDR | 0.679 ± 0.056
VPLIFSTFVSIS | 0.54 ± 0.009
VPLSPPRTPTLY | 0.648 ± 0.12
VPPALPRSPGPP | 0.72 ± 0.069
VPPGVVSSPCPN | 0.661 ± 0.056
VPPHPFFPLPPP | 0.788 ± 0.099
VPPKHLYPLPPP | 0.612 ± 0.007

Sequence | protein stability index
VPPPALPPCPAF | 0.723 ± 0.037
VPPPRLCPERPH | 0.719 ± 0.063
VPPRPAPRLRPP | 0.695 ± 0.07
VPRAPSPCPVSL | 0.71 ± 0.046
VPRSSGAILGFL | 0.637 ± 0.015
VPSGTHHPFTLS | 0.751 ± 0.02
VPSLRSTLPPPL | 0.731 ± 0.051
VPTCFPLSPSPP | 0.714 ± 0.016
VPTLCDQVFLFA | 0.627 ± 0.0086
VPVGSWVGIGGK | 0.692 ± 0.043
VPVSNLCERTAG | 0.648 ± 0.011
VQCRIREELWGG | 0.6919 ± 0.0047
VQGGRNGEGGRG | 0.651 ± 0.081
VQIALTLNSPSL | 0.605 ± 0.058
VQLSISCEPPSN | 0.7391 ± 0.007
VQMKVKKRLNEW | 0.6744 ± 0.0046
VQYITSGASRWG | 0.6309 ± 0.00084
VRAVGSIILPPG | 0.6558 ± 0.00093
VRCAAIKLIGRI | 0.675 ± 0.051
VRCKGLGLAVCA | 0.541 ± 0.062
VRCWGRGSGVGD | 0.666 ± 0.036
VREILKDGIFDP | 0.717 ± 0.043
VRERGAGAVAGS | 0.715 ± 0.044

Sequence | protein stability index
VRERVRRWVGDG | 0.5752 ± 0.0053
VRGGGRARRRGS | 0.7347 ± 0.0044
VRGKSARRSSRR | 0.665 ± 0.029
VRISGLSALPHF | 0.70793 ± 9.5e-05
VRLMARFESFLW | 0.69 ± 0.023
VRPLPAPVQPHP | 0.741 ± 0.019
VRPYPGDDVSWR | 0.693 ± 0.061
VRRGVGAVVFGG | 0.655 ± 0.08
VRRRLRLFLMWG | 0.588 ± 0.0052
VRRVHAMVLLGG | 0.65 ± 0.014
VRTLVGQVWETV | 0.721 ± 0.031
VRVALISDRGKQ | 0.738 ± 0.025
VSADGAGCAVRG | 0.709 ± 0.052
VSAYLKNSGYRE | 0.6955 ± 0.0061
VSAYWFLLFGSV | 0.662 ± 0.13
VSCHSPPVPHDP | 0.702 ± 0.011
VSCVRGFFLFPC | 0.699 ± 0.022
VSEEFAGSGTKS | 0.67 ± 0.064
VSFPHSRLSLTI | 0.747 ± 0.02
VSFSSLLRFCRG | 0.671 ± 0.0091
VSGDLRRWRNSE | 0.673 ± 0.043
VSGEGRGRTTPD | 0.665 ± 0.013
VSGFVAALRIFL | 0.657 ± 0.025

Sequence | protein stability index
VSGGGEWRDAYG | 0.677 ± 0.04
VSGMRRRFGNRL | 0.756 ± 0.11
VSHVRVNESAAN | 0.677 ± 0.0078
VSKVGDMNSGSK | 0.651 ± 0.013
VSLGALFEFRAA | 0.745 ± 0.015
VSLSSLPRRFSP | 0.75 ± 0.04
VSNIVGRSLSCR | 0.688 ± 0.014
VSNVSDSGHPYL | 0.6777 ± 0.0021
VSRHRRLAGMIW | 0.735 ± 0.018
VSRPPPRNPTPP | 0.728 ± 0.078
VSSVSLRVRVLF | 0.564 ± 0.08
VSVFRFALGLQV | 0.563 ± 0.0058
VSVGVPGWYGMI | 0.6336 ± 0.0049
VSVWLGSARWVG | 0.628 ± 0.0086
VSWRGSFQGIYG | 0.685 ± 0.043
VSYLAQSFLPNL | 0.69928 ± 9.6e-05
VSYRLDMHFLYY | 0.6062 ± 0.0046
VTISLGGGGGMQ | 0.684 ± 0.12
VTISLGVGGGMQ | 0.725 ± 0.048
VTRGGKLRRGRV | 0.638 ± 0.089
VTRRIPPRGGPR | 0.72 ± 0.074
VVCFGNFGGVRV | 0.778 ± 0.049
VVGAALRDGPRE | 0.71 ± 0.012

Sequence | protein stability index
VVGAIRWGGGRR | 0.705 ± 0.014
VVGAVSASLAGV | 0.662 ± 0.056
VVGGGDWRWGVW | 0.7709 ± 0.0046
VVGNGGWVEGEV | 0.621 ± 0.13
VVGSAGGGGFVL | 0.6717 ± 0.0065
VVGSVPVSAFWE | 0.746 ± 0.075
VVGSWGRGGCGG | 0.639 ± 0.0017
VVGVCLDIVCSP | 0.519 ± 0.013
VVGWSSGVVEVA | 0.688 ± 0.035
VVHECIGVYGTV | 0.634 ± 0.017
VVLFCPFISSED | 0.726 ± 0.012
VVLGQGRGVGAM | 0.669 ± 0.012
VVPSLLVLPFFC | 0.51 ± 0.01
VVRLEGGSGAVW | 0.703 ± 0.0085
VVRLGGVSWAGG | 0.649 ± 0.016
VVRLGLVSGCGG | 0.581 ± 0.013
VVRMFRLGNGNF | 0.7 ± 0.0083
VVRQADVLLGLV | 0.662 ± 0.019
VVSLPITGTVTL | 0.722 ± 0.029
VVSSFVCLLRRG | 0.654 ± 0.055
VVVGGVGGFFGC | 0.754 ± 0.015
VVVGQGPLRGGA | 0.714 ± 0.021
VVVIGVWGGGVG | 0.612 ± 0.019

Sequence | protein stability index
VVVRVAEGGGRW | 0.666 ± 0.047
VVWCSWGFLFSA | 0.625 ± 0.042
VWCVWGVGGLWA | 0.648 ± 0.025
VWGGGGVTVWLV | 0.6149 ± 0.0054
VWGGGSWGGCGG | 0.744 ± 0.082
VWGWGSWGGCGG | 0.705 ± 0.066
VWHWGRSLYLAA | 0.525 ± 0.021
VWRGGGVRLGRL | 0.75 ± 0.046
VWSWGEGGGAVV | 0.7 ± 0.035
VWVCGLGGGVLG | 0.777 ± 0.021
VYGRRNVRLNIV | 0.582 ± 0.068
VYGVVVWLFGFL | 0.678 ± 0.0095
VYHCRLSQHRTL | 0.717 ± 0.034
VYSSVPGRIAID | 0.708 ± 0.008
VYYDERLGDGHS | 0.866 ± 0.021
WAGGGVWRVGGR | 0.715 ± 0.042
WAKRERRNEGRR | 0.71 ± 0.011
WCGGGGRGGVAG | 0.72 ± 0.047
WCIPEAPVATSR | 0.684 ± 0.0083
WCSRRIDWSSAP | 0.7318 ± 0.002
WDGWWGGAGVGE | 0.695 ± 0.077
WDVGSHRGGFWL | 0.713 ± 0.02
WERGGGGRVCGW | 0.754 ± 0.02

Sequence | protein stability index
WFCSVICGVFSV | 0.5678 ± 0.00093
WFKALCPIFCKD | 0.62 ± 0.015
WFLRSFGIQRSG | 0.511 ± 0.0047
WFRLRFASGRRS | 0.682 ± 0.054
WFVCVARCPFPF | 0.623 ± 0.035
WFVTVISSRFGS | 0.6444 ± 0.0011
WGARSRFRWGRS | 0.7284 ± 0.0052
WGDGSGRVWEIS | 0.68 ± 0.03
WGFGRCELMLGS | 0.708 ± 0.035
WGGGGRLAGLLG | 0.687 ± 0.037
WGGGRGLRGRWG | 0.694 ± 0.057
WGGRAVGVLGVG | 0.629 ± 0.048
WGGRSWGLRRGC | 0.664 ± 0.028
WGGTAGWLHIGV | 0.747 ± 0.076
WGGVRSGGACCA | 0.72 ± 0.075
WGKRGGLGALSR | 0.653 ± 0.06
WGLLCPLRSDNV | 0.705 ± 0.017
WGRGETLCSSVP | 0.72 ± 0.011
WGRGGSRGSWGA | 0.716 ± 0.014
WGRNGRRMEVTK | 0.687 ± 0.017
WGSVGVVGLFSG | 0.69 ± 0.057
WGTDVGAGCVAR | 0.741 ± 0.027
